Reference: the Immune Epitope Database (IEDB)

Experiments:
HLA-A*02:03 = experiment: IEDB peptide-MHC binding, purified MHC/competitive/radioactivity; filed as Kd, often an IC50 or EC50 that approximates it; ≥ and ≤ were set here for values at or beyond the usual limits of such assays
HLA-A*02:02 = experiment: as above
HLA-A*02:06 = experiment: as above
HLA-B*51:01 = experiment: as above
HLA-B*53:01 = experiment: as above
HLA-A*30:02 = experiment: as above
HLA-B*07:02 = experiment: IEDB peptide-MHC binding, purified MHC/direct/fluorescence; filed as Kd, often an IC50 or EC50 that approximates it; ≥ and ≤ were set here for values at or beyond the usual limits of such assays
HLA-A*69:01 = experiment: as above
HLA-A*02:01 [1] = experiment: as above
HLA-A*02:01 [2] = experiment: IEDB peptide-MHC binding, purified MHC/competitive/fluorescence; ≥ and ≤ were set here for values at or beyond the usual limits of such assays
HLA-B*15:01 = experiment: IEDB peptide-MHC binding, purified MHC/direct/fluorescence; filed as Kd, often an IC50 or EC50 that approximates it; ≥ and ≤ were set here for values at or beyond the usual limits of such assays; details: source organism: Yellow fever virus 17D
HLA-A*11:01 = experiment: as above
HLA-A*24:02 = experiment: IEDB peptide-MHC binding, purified MHC/competitive/radioactivity; filed as Kd, often an IC50 or EC50 that approximates it; ≥ and ≤ were set here for values at or beyond the usual limits of such assays; details: source organism: Dengue virus 3 Martinique/1243/1999
HLA-A*02:01 [3] = experiment: IEDB peptide-MHC binding, purified MHC/competitive/fluorescence; filed as Kd, often an IC50 or EC50 that approximates it; ≥ and ≤ were set here for values at or beyond the usual limits of such assays; details: source organism: Vaccinia virus WR
HLA-B*58:01 = experiment: IEDB peptide-MHC binding, purified MHC/direct/fluorescence; filed as Kd, often an IC50 or EC50 that approximates it; ≥ and ≤ were set here for values at or beyond the usual limits of such assays; details: source organism: Homo sapiens
[4] = source organism: Vaccinia virus WR
[5] = source organism: Dengue virus 3 Martinique/1243/1999
[6] = source organism: Dengue virus 1 Brazil/97-11/1997
[7] = source organism: Dengue virus 2 Jamaica/1409/1983
[8] = source organism: SARS coronavirus Tor2
[9] = source organism: Dengue virus 4 Philippines/H241/1956
[10] = source organism: Cryptosporidium hominis
[11] = source organism: Cryptosporidium parvum
[12] = source organism: Mammarenavirus juninense

Sequence	Kd (HLA-A*02:03; [4]) [nM]	Kd (HLA-A*02:02; [4]) [nM]	Kd (HLA-A*02:06; [4]) [nM]	further results
NQGNILMDSI	4040	3930	3090	
NTIDKSSPL	27.1	82.3	18.6	
PLHIVCSKT	2150	997	3890	
PLKDVERLQM	≥ 44000	6160	≥ 37300	
PPFGESNIV				Kd (HLA-B*51:01; [5]): 1790 nM
PPTAGILARW				Kd (HLA-B*53:01; [6]): 10.3 µM
PPTAGILKRW				Kd (HLA-B*53:01; [7]): 3.27 µM
PTSETMYLT	3640	10400	≥ 77100	
QAKKPEVRI	6570	738	≥ 41900	
QLMCQPILLL				Kd (HLA-A*02:03; [8]): 217 nM; Kd (HLA-A*02:02; [8]): 92.3 nM; Kd (HLA-A*02:06; [8]): 325 nM
QNKEGDQYIY				Kd (HLA-A*30:02; source organism: Dengue virus 1 Nauru/West Pac/1974): 1350 nM
RFLGEDGCWY				Kd (HLA-A*30:02; [9]): 26.3 nM
RNQNKEGDQY				Kd (HLA-A*30:02; [6]): 120 nM
RRRPVTRPL				Kd (HLA-B*07:02; source organism: Candidatus Solibacter): 3.4 nM
SALMTLDDL	707	411	99.9	
SGFGGETPV				Kd (HLA-A*69:01; [10]): 13.5 µM; Kd (HLA-A*02:01 [1]; [10]): 863 nM
STKNILVTV				Kd (HLA-A*69:01; [11]): 0.0607 µM; Kd (HLA-A*02:01 [1]; [11]): 416 nM
STSNGLITS				IC50 (HLA-A*02:01 [2]; source organism: Sudan ebolavirus): ≥ 177000 nM
SVGGVFTSV				IC50 (HLA-A*02:01 [2]; source organism: West Nile virus NY-99): 247 nM
SVKEDLVAY				Kd (HLA-B*15:01): 95.5 nM
TIDAINKCV	634	90.1	406	
TKLEGKIVQY				Kd (HLA-A*30:02; [6]): 7040 nM
TLFGRGVIDT	95.6	199	3310	
TPEGEVGAI				Kd (HLA-B*53:01; [6]): ≥ 40.2 µM
TSLGLLYTV				Kd (HLA-A*02:03; [12]): 405 nM; Kd (HLA-A*02:02; [12]): 933 nM; Kd (HLA-A*02:06; [12]): 4.17 nM

Sequence	Kd (HLA-A*02:03; [4]) [nM]	Kd (HLA-A*02:02; [4]) [nM]	Kd (HLA-A*02:06; [4]) [nM]	further results
TTELNIVDEI	≥ 70400	≥ 38700	≥ 21400	
VAWRTATLI				Kd (HLA-B*51:01; [5]): 137 nM
VHQVFGTAY				Kd (HLA-A*30:02; [6]): 599 nM
VIVVPVIDRL	≥ 59000	4570	11100	
VLSLIGLKR				Kd (HLA-A*11:01; source organism: West Nile virus): ≥ 20 µM
VMFNGVTFST				Kd (HLA-A*02:03; [8]): 75.2 nM; Kd (HLA-A*02:02; [8]): 0.69 nM; Kd (HLA-A*02:06; [8]): 131 nM
VMGITAEWLW				Kd (HLA-B*53:01; [5]): 0.0399 µM
VPGLPGTVL				Kd (HLA-A*11:01; source organism: SARS-CoV1): 4.55 µM; Kd (HLA-B*07:02; source organism: SARS-CoV1): 91.5 nM
VPLAGPMVA				Kd (HLA-B*51:01; [9]): 17000 nM
VQLPKRGVRV	2210	≥ 33700	41.3	
VYRIKQQGI				Kd (HLA-A*24:02): 464 nM
WAYHGSYEV				Kd (HLA-A*02:06; [6]): 24.5 nM; Kd (HLA-B*51:01; [6]): 11.1 nM
WLGAAITLVV	78.4	19.7	1840	
YALCTLLHL				Kd (HLA-A*02:03; [8]): 768 nM; Kd (HLA-A*02:02; [8]): 1330 nM; Kd (HLA-A*02:06; [8]): 1.53 nM
YAQIQPHWI				Kd (HLA-B*51:01; [7]): 1080 nM
YIGEVLVSV				IC50 (HLA-A*02:01 [2]; source organism: Homo sapiens): 10 nM
YIILFILFFA	674	263	1050	
YIKDLKHAT	≥ 78100	18500	≥ 39400	
YLFNWAVRT				IC50 (HLA-A*02:01 [2]; source organism: Hepatitis C virus genotype 1): 5000 nM
YLIHDNIMYT				Kd (HLA-A*02:01 [3]): 1.4 nM
YLSKEDRIIT	5570	1300	≥ 49000	
YPAEITLTW				Kd (HLA-B*58:01): 55 nM; Kd (HLA-B*07:02; source organism: Homo sapiens): 147 nM
YTTMFGGVSW				Kd (HLA-B*53:01; [9]): 0.119 µM
YVHSLLYSSM	6710	2200	2250	
